US20210363259A1 (Biogen, published 2021)

Tests used:
integrin αvβ6 [1] = target: T1, integrin αvβ6 (human, UniProt P06756 31-1048; P18564 22-788); experiment: potency assay, binding relative to reference standard; stability sample, 9 months at 2-8° C.
T1 construct: also called the antigen

integrin αvβ6 [2] = target: T1, integrin αvβ6; experiment: potency assay, binding relative to reference standard; stability sample, 3 months at 2-8° C.
integrin αvβ6 [3] = target: T1, integrin αvβ6; experiment: potency assay, binding relative to reference standard; stability sample, 12 months at 2-8° C.
integrin αvβ6 [4] = target: T1, integrin αvβ6; experiment: DELFIA blocking assay, binding relative to reference standard; stability sample, 0 months at 2-8° C.
integrin αvβ6 [5] = target: T1, integrin αvβ6; experiment: DELFIA blocking assay, binding relative to reference standard; stability sample, 1 month at 2-8° C.
integrin αvβ6 [6] = target: T1, integrin αvβ6; experiment: potency assay, binding relative to reference standard; stability sample, 6 months at 2-8° C.
integrin αvβ6 [7] = target: T1, integrin αvβ6; experiment: potency assay, binding relative to reference standard; stability sample, 24 months at 2-8° C.
integrin αvβ6 [8] = target: T1, integrin αvβ6; experiment: DELFIA blocking assay, binding relative to reference standard; stability sample, 18 months at 2-8° C.

T1 sequence (P06756 31-1048, chain 1 of 2): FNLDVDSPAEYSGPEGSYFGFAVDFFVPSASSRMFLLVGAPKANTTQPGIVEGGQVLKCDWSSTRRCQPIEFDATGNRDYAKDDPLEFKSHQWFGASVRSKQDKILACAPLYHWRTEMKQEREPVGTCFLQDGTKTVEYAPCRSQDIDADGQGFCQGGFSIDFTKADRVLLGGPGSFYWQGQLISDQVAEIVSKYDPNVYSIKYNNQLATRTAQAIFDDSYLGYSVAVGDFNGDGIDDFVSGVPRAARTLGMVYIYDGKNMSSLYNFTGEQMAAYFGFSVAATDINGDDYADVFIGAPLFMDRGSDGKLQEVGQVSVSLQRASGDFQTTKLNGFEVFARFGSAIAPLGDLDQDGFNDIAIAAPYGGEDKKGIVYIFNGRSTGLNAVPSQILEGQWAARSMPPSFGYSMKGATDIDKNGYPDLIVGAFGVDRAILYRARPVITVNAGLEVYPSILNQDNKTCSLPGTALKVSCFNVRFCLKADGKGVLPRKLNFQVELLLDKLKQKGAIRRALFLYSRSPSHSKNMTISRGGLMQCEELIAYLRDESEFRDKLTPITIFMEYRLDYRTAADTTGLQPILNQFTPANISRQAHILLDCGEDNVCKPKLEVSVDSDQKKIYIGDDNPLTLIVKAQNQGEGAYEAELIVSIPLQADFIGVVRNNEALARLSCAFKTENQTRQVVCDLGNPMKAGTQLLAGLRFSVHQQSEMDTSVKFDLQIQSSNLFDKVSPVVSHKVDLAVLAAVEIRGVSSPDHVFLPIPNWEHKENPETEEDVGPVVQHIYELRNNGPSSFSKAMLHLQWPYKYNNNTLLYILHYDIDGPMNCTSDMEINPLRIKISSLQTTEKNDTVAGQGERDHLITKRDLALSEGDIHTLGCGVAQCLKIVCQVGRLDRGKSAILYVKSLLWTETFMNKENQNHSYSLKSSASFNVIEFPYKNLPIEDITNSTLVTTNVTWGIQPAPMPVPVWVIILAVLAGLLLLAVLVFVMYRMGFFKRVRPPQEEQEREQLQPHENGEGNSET
T1 sequence (P18564 22-788, chain 2 of 2): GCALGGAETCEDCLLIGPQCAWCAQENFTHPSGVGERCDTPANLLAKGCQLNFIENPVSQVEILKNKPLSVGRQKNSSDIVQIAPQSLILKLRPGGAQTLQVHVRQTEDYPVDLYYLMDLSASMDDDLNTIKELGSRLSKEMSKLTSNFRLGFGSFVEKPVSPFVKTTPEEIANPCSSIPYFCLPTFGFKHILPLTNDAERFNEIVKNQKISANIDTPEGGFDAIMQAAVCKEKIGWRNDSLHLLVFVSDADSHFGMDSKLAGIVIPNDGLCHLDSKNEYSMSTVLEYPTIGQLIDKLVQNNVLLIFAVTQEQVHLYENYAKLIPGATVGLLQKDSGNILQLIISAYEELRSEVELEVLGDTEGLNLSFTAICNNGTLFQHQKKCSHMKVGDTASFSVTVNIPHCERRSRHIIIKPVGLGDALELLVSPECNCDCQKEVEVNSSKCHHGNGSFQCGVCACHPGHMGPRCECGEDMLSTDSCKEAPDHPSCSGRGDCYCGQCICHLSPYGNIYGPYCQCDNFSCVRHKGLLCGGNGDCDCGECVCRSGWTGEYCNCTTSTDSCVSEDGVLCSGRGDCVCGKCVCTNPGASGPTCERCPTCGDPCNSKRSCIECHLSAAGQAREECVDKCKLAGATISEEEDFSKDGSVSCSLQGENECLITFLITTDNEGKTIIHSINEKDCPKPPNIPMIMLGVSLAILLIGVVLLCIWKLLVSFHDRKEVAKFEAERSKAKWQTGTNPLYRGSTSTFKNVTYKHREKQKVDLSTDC

B1: STX-100 (antibody, human IgG1, kappa, V domains shown)
VH: EVQLVESGGGLVQPGGSLRLSCAASGFTFSRYVMSWVRQAPGKGLEWVASISSGGRMYYPDTVKGRFTISRDNAKNSLYLQMNSLRAEDTAVYYCARGSIYDGYYVFPYWGQGTLVTVSS
VL: EIVLTQSPATLSLSPGERATLSCSASSSVSSSYLYWYQQKPGQAPRLLIYSTSNLASGIPARFSGSGSGTDFTLTISSLEPEDFAVYYCHQWSTYPPTFGGGTKVEIKR
notes: Humanized human IgG1/human kappa monoclonal antibody; It was tested as drug product in citrate/arginine/methionine/PS80 formulations; also called BG00011; BG11
Potency, % Binding relative to Reference Standard (integrin αvβ6 [1]): 95%
Potency, % Binding relative to Reference Standard (integrin αvβ6 [2]): 102%
Potency, % Binding relative to Reference Standard (integrin αvβ6 [3]): 100%
DELFIA Blocking - Binding relative to Reference Standard (integrin αvβ6 [4]): 101%
DELFIA Blocking - Binding relative to Reference Standard (integrin αvβ6 [5]): 100%
Potency, % Binding relative to Reference Standard (integrin αvβ6 [6]): 98%
Potency, % Binding relative to Reference Standard (integrin αvβ6 [7]): 106%
DELFIA Blocking - Binding relative to Reference Standard (integrin αvβ6 [8]): 96%
